From patent US7176008B2, “Process for producing activated thrombin-activatable fibrinolysis inhibitor” (Merck & Co., Inc., priority 2002, dated 2007)

B1: TAFIa (Homo sapiens) (protein)
chain: ASASYYEQYHSLNEIYSWIEFITERHPDMLTKIHIGSSFEKYPLYVLKVSGKEQAAKNAIWIDCGIHAREWISPAFCLWFIGHITQFYGIIGQYTNLLRLVDFYVMPVVNVDGYDYSWKKNRMWRKNRSFYANNHCIGTDLNRNFASKHWCEEGASSSSCSETYCGLYPESEPEVKAVASFLRRNINQIKAYISMHSYSQHIVFPYSYTRSKSKDHEELSLVASEAVRAIEKISKNTRYTHGHGSETLYLAPGGGDDWIYDLGIKYSFTIELRDTGTYGFLLPERYIKPTCREAFAAVSKIAWHVIRNV
B2: CPB (Homo sapiens) (protein)
chain: ATGHSYEKYNKWETIEAWTQQVATENPALISRSVIGTTFEGRAIYLLKVGKAGQNKPAIFMDCGFHAREWISPAFCQWFVREAVRTYGREIQVTELLDKLDFYVLPVLNIDGYIYTWTKSRFWRKTRSTHTGSSCIGTDPNRNFDAGWCEIGASRNPCDETYCGPAAESEKETKALADFIRNKLSSIKAYLTIHSYSQMMIYPYSYAYKLGENNAELNALAKATVKELASLHGTKYTYGPGATTIYPAAGGSDDWAYDQGIRYSFTFELRDTGRYGFLLPESQIRATCEETFLAIKYVASYVLEHLY
B3: CPM (Homo sapiens) (protein)
chain: LDFNYHRQEGMEAFLKTVAQNYSSVTHLHSIGKSVKGRNLWVLVVGRFPKEHRIGIPEFKYVANMHGDETVGRELLLHLIDYLVTSDGKDPEITNLINSTRIHIMPSMNPDGFEAVKKPDCYYSIGRENYNQYDLNRNFPDAFEYNNVSRQPETVAVMKWLKTETFVLSANLHGGALVASYPFDNGVQATGALYSRSLTPDDDVFQYLAHTYASRNPNMKKGDECKNKMNFPNGVTNGYSWYPLQGGMQDYNYIWAQCFEITLELSCCKYPREEKLPSFWNNNKASLIEYIKQVHLGVKGQVFDQNGNPLPNVIVEVQDRKHICPYRTNKYGEYYLLLLPGSYIINVTVPGHDPHITKVIIPEKSQNFSALKKDILLPFQGQLDSIPVSNPSCPMIPLYRNLPDHS

Substrate: CSCC[C@H](NC(=O)[C@H](CC(C)C)NC(=O)CNC(=O)CCCCCNC(=O)CCCCCNC(=O)CCCC[C@@H]1SC[C@@H]2NC(=O)N[C@@H]21)C(=O)N[C@H](C(=O)NCC(=O)NCC(=O)N[C@H](C(=O)N[C@H](C(=O)N[C@@H](CCCNC(=N)N)C(=O)O)C(C)C)C(C)C)C(C)C
Experiment: purified protein, by the assay type
Conditions: other: room temperature
Experimental: A typical assay (75 μL) contained each studied carboxypeptidase and selected inhibitors (in 5 μL DMSO) in HBSP buffer in 96-well round bottom microtiter plates (Costar 3365 plates). Enzyme and compound were preincubated for 15–30 minutes at room temperature. […] The final substrate concentration was 15 to 50 nM. The amount of carboxypeptidase activity was titrated to result in 40,000–50,000 electrochemiluminescence counts (typically 0.02–0.1 nM, 0.01 nM, 5 nM, and 0.15–0.65 nM. for TAFIa, CPB, CPN and CPM, respectively). […] Ruthenium-labeled G2-10 (25 μL of 0.063 μg/mL) and streptavidin magnetic beads (25 μL of 0.2 mg/mL, Dynabeads M-280) were added to the quenched solution and shaken at 300 rpm for >1 hr. G2-10 antibody and beads were prepared in a BSA diluent containing 150 mM phosphate, pH 7.8, 150 mM NaCl, 3% (w/v) BSA (protease free fraction V) and 0.05% NaN3. The volume was brought to 250 μL with HBSP and read on an Igen 96-well electrochemiluminescence plate reader (M8 Analyzer) at 620 nm. Subtraction of background activity in solutions containing only substrate was performed to determine the final activity. […] One unit was defined as one nM product generated per min.
All measurements were performed in at least duplicates and the inhibition constants (Ki) were determined by the equation below wherein Vo and Vi are activity in the absence and presence of inhibitors, respectively. Vo/Vi=1+[I]/K1
Several commercial inhibitors were tested with the electrochemiluminescence assay.
Hydrolysis of substrate was measured in HBSP (pH 7.4) for TAFIa, CPB, CPM, and CPM. Activities of CPE and CPZ were measures in acetate buffer (pH 5.5) and Tris buffer (pH 7.4), respectively.

Protein | Km (HBSP pH 7.4) [µM] | Km [µM]
B1 | 8 | –
B2 | 12 | –
B3 | – | 38
